From publication PMC6689322 (Journal of structural biology, 2019) come the findings set out here.

In data set [1] the target is ArsR As(III)-responsive transcriptional repressor from Corynebacterium glutamicum (Corynebacterium glutamicum). The experiment in a line: crystal structure.
The data set “crystal structure” deals with the molecule itself. The data set is described as follows: crystal structure.

Molecule “ArsR As(III)-responsive transcriptional repressor from Corynebacterium glutamicum (natural protein)” had a stoichiometry N in data set [1] of 2.

B1: ArsR As(III)-responsive transcriptional repressor from Acidithiobacillus ferrooxidans (natural protein)
chain: MEPLQDPAQIVARLEALASPVRLEIFRLLVEQEPTGLVSGDIAEHLGQPHNGISFHLKNLQHAGLVTVQREGRYQRYRAAMPVVRALVAYLTENCCHGTRDCALSGETRSPSVQEGNQ
For the molecule B1, the “stoichiometry N” value in the data set “crystal structure” is 2.

What is called stoichiometry N is the number of molecules, sites or subunits per partner or assembly.
